Series [1] addresses T1, odr-7 (T18D3.2) (Caenorhabditis elegans) (UniProt P41933).
T1 sequence: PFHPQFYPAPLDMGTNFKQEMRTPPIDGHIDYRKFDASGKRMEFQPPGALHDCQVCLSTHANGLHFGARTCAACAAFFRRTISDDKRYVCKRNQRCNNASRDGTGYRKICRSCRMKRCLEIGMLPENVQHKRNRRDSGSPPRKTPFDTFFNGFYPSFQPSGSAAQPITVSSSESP

Series [2] addresses T2, mbr-1 (T01C1.2) (Caenorhabditis elegans) (UniProt G5EGQ5).
T2 sequence: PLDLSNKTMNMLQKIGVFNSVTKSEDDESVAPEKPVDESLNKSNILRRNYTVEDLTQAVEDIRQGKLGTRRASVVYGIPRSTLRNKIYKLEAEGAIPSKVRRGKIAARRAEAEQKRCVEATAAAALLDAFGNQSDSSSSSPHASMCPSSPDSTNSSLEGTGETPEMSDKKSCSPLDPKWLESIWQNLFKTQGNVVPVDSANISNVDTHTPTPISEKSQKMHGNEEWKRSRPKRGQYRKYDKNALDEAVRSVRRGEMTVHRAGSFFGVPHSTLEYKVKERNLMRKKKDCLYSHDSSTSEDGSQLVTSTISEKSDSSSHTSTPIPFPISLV

The target in series [3] is T3, nhr-142 (F44E7.8) (Caenorhabditis elegans) (UniProt J7SF93).
T3 sequence: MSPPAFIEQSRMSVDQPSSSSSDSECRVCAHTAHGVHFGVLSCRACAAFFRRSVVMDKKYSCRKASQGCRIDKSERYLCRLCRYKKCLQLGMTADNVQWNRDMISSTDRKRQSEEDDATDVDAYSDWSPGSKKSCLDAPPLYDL

In series [4] the target is T4, nhr-232 (Y22F5A.1) (Caenorhabditis elegans) (UniProt A0A486WVR6).
T4 sequence: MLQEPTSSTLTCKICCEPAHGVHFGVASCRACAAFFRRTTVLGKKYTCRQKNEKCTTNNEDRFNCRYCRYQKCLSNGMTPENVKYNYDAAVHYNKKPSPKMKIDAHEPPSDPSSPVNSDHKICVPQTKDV

Series [5] addresses T5, nhr-42 (C33G8.6) (Caenorhabditis elegans) (UniProt O76828).
T5 sequence: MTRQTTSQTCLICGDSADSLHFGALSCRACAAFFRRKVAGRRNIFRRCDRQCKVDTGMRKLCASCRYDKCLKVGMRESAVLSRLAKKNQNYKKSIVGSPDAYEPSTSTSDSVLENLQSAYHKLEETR

Series [6] addresses T6, nhr-66 (T09A12.4) (Caenorhabditis elegans) (UniProt H2KYJ8).
T6 sequence: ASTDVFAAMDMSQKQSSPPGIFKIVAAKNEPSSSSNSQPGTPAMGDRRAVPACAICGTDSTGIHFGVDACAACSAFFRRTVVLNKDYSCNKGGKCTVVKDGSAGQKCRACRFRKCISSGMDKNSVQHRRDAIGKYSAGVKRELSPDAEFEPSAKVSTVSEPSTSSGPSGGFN

The target in series [7] is T7, nhr-70 (Y51A2D.17) (Caenorhabditis elegans) (UniProt G5EEL3).
T7 sequence: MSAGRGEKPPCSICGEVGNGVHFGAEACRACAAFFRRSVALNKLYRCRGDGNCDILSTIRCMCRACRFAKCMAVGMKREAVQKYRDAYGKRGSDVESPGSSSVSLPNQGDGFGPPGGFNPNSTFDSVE

Series [8] deals with T8, nhr-216 (T09D3.4) (Caenorhabditis elegans).
T8 sequence: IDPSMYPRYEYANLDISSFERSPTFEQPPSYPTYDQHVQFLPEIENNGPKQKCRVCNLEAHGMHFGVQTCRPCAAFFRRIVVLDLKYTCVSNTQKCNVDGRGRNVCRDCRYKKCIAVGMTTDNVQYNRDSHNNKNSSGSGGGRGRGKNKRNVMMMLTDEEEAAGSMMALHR

On to “AAATTGTA (double strand) [8-mer AAATTGTA]”, for which the binding signal (PBM E-score (-0.5 to 0.5)) in series [1] worked out at 0.456. In series [2], “AAGGCCCC (double strand) [8-mer AAGGCCCC]” returned a binding signal (PBM E-score (-0.5 to 0.5)) of 0.489. The same measure, in the same setting: next, “AAGGGGCC (double strand) [8-mer AAGGGGCC]”: 0.487. With “AAGTCACA (double strand) [8-mer AAGTCACA]”, the values for the binding signal (PBM E-score (-0.5 to 0.5)) in series [3], in series [4] and in series [5] were 0.496, 0.498 and 0.494, respectively. In series [1], “AATTGTAC (double strand) [8-mer AATTGTAC]” gave a binding signal (PBM E-score (-0.5 to 0.5)) of 0.46.

In series [1], “AATTGTAG (double strand) [8-mer AATTGTAG]” gave a binding signal (PBM E-score (-0.5 to 0.5)) of 0.489. As to “ACACAAAA (double strand) [8-mer ACACAAAA]”, the binding signal (PBM E-score (-0.5 to 0.5)) in series [4] amounted to 0.465.

Take “ACTACAAT (double strand) [8-mer ACTACAAT]”: the figures for the binding signal (PBM E-score (-0.5 to 0.5)) in series [6], in series [7] and in series [1] were 0.488, 0.49 and 0.49, respectively. As to “AGACTACA (double strand) [8-mer AGACTACA]”, the binding signal (PBM E-score (-0.5 to 0.5)) in series [6] worked out at 0.487; in series [7] it was 0.486. Take “AGCCCCCC (double strand) [8-mer AGCCCCCC]”: in series [2], the binding signal (PBM E-score (-0.5 to 0.5)) was 0.491. In series [2], “AGGCCCCC (double strand) [8-mer AGGCCCCC]” came in with a binding signal (PBM E-score (-0.5 to 0.5)) of 0.495.

In turn, “AGGCCCCT (double strand) [8-mer AGGCCCCT]” gave a binding signal (PBM E-score (-0.5 to 0.5)) in series [2] of 0.491. As to “AGGCTACA (double strand) [8-mer AGGCTACA]”, the binding signal (PBM E-score (-0.5 to 0.5)) in series [7] was found to be 0.488. With “AGGGGCCA (double strand) [8-mer AGGGGCCA]”, the binding signal (PBM E-score (-0.5 to 0.5)) in series [2] was 0.492. Take “AGGGGGGC (double strand) [8-mer AGGGGGGC]”: in series [2], the binding signal (PBM E-score (-0.5 to 0.5)) was 0.491. Regarding “AGGTCACA (double strand) [8-mer AGGTCACA]”, the binding signal (PBM E-score (-0.5 to 0.5)) in series [3] amounted to 0.486; in series [4] it was 0.455; in series [5] it was 0.486. As to “AGTCACAA (double strand) [8-mer AGTCACAA]”, the binding signal (PBM E-score (-0.5 to 0.5)) in series [3] was found to be 0.498; in series [4], 0.497; in series [5], 0.489. Consider “AGTCACAC (double strand) [8-mer AGTCACAC]”, for which the binding signal (PBM E-score (-0.5 to 0.5)) in series [3] turned out to be 0.49; in series [4], 0.48; in series [5], 0.489. As to “AGTCACAG (double strand) [8-mer AGTCACAG]”, the values for the binding signal (PBM E-score (-0.5 to 0.5)) in series [3] and in series [4] were 0.492 and 0.465, respectively.

As to “AGTCATAA (double strand) [8-mer AGTCATAA]”, the values for the binding signal (PBM E-score (-0.5 to 0.5)) in series [3] and in series [4] were 0.491 and 0.48, respectively.

As to “ATACAATA (double strand) [8-mer ATACAATA]”, in series [1], the binding signal (PBM E-score (-0.5 to 0.5)) was found to be 0.461. Sequence “ATCAGAAC (double strand) [8-mer ATCAGAAC]” displayed a binding signal (PBM E-score (-0.5 to 0.5)) in series [8] of 0.494. The same measure, in the same setting: then “ATCAGAAG (double strand) [8-mer ATCAGAAG]”, with 0.494. For the sequence “ATGGCCCC (double strand) [8-mer ATGGCCCC]”, in series [2], the binding signal (PBM E-score (-0.5 to 0.5)) came out at 0.487. In series [8], “ATTCTGAC (double strand) [8-mer ATTCTGAC]” gave a binding signal (PBM E-score (-0.5 to 0.5)) of 0.495. The sequence “ATTGTAGC (double strand) [8-mer ATTGTAGC]” showed a binding signal (PBM E-score (-0.5 to 0.5)) in series [1] of 0.487.

Regarding “ATTGTGAC (double strand) [8-mer ATTGTGAC]”, the results for the binding signal (PBM E-score (-0.5 to 0.5)) in series [3] and in series [4] were 0.494 and 0.489, respectively. The sequence “ATTTGTAG (double strand) [8-mer ATTTGTAG]” had a binding signal (PBM E-score (-0.5 to 0.5)) in series [1] of 0.479. In the case of “CGACTACA (double strand) [8-mer CGACTACA]”, in series [7], the binding signal (PBM E-score (-0.5 to 0.5)) was 0.487. The same measure, in the same setting: next, “CGGCTACA (double strand) [8-mer CGGCTACA]”: 0.488. With “CGTCAGAA (double strand) [8-mer CGTCAGAA]”, the binding signal (PBM E-score (-0.5 to 0.5)) in series [8] was 0.493. In the case of “CTACAATC (double strand) [8-mer CTACAATC]”, the binding signal (PBM E-score (-0.5 to 0.5)) in series [1] is 0.466. Sequence “CTTCTGAC (double strand) [8-mer CTTCTGAC]” registered a binding signal (PBM E-score (-0.5 to 0.5)) in series [8] of 0.498. On to “GACACAAA (double strand) [8-mer GACACAAA]”, for which the binding signal (PBM E-score (-0.5 to 0.5)) in series [4] stood at 0.475. Regarding “GACTACAC (double strand) [8-mer GACTACAC]”, the figures for the binding signal (PBM E-score (-0.5 to 0.5)) in series [6] and in series [7] were 0.484 and 0.49, respectively.

“GATCAGAA (double strand) [8-mer GATCAGAA]”: in series [8], the binding signal (PBM E-score (-0.5 to 0.5)) is 0.497. With “GCTACAAA (double strand) [8-mer GCTACAAA]”, the binding signal (PBM E-score (-0.5 to 0.5)) was determined as 0.482 in series [6], 0.489 in series [7] and 0.462 in series [1]. As to “GCTACAAC (double strand) [8-mer GCTACAAC]”, in series [7], the binding signal (PBM E-score (-0.5 to 0.5)) is 0.483. Take “GGACACAA (double strand) [8-mer GGACACAA]”: the binding signal (PBM E-score (-0.5 to 0.5)) in series [3] worked out at 0.493; in series [4], 0.473. In turn, “GGACAGAA (double strand) [8-mer GGACAGAA]” showed a binding signal (PBM E-score (-0.5 to 0.5)) in series [8] of 0.493. On to “GGCTACAA (double strand) [8-mer GGCTACAA]”, for which the binding signal (PBM E-score (-0.5 to 0.5)) came to 0.492 in series [7] and 0.467 in series [1]. In series [7], “GGCTACAC (double strand) [8-mer GGCTACAC]” came in with a binding signal (PBM E-score (-0.5 to 0.5)) of 0.487. As for “GGTCACAA (double strand) [8-mer GGTCACAA]”, the binding signal (PBM E-score (-0.5 to 0.5)) in series [3] stood at 0.495; in series [4], 0.485. “GGTCAGAA (double strand) [8-mer GGTCAGAA]” registered a binding signal (PBM E-score (-0.5 to 0.5)) in series [8] of 0.498. “GTCACAAA (double strand) [8-mer GTCACAAA]”: the figures for the binding signal (PBM E-score (-0.5 to 0.5)) in series [3], in series [4] and in series [5] were 0.498, 0.497 and 0.48, respectively.

“GTCACACA (double strand) [8-mer GTCACACA]” displayed a binding signal (PBM E-score (-0.5 to 0.5)) in series [4] of 0.46. The sequence “GTCAGAAA (double strand) [8-mer GTCAGAAA]” had a binding signal (PBM E-score (-0.5 to 0.5)) in series [8] of 0.496. Same read-out and setting: then “GTCAGAAC (double strand) [8-mer GTCAGAAC]”, with 0.498.

As to “TACAAATA (double strand) [8-mer TACAAATA]”, the binding signal (PBM E-score (-0.5 to 0.5)) in series [1] came out at 0.461. The same measure, in the same setting: next, “TACTACAA (double strand) [8-mer TACTACAA]”: 0.474. Regarding “TAGTCACA (double strand) [8-mer TAGTCACA]”, the binding signal (PBM E-score (-0.5 to 0.5)) amounted to 0.493 in series [3], 0.482 in series [4] and 0.494 in series [5]. Regarding “TCTGACCA (double strand) [8-mer TCTGACCA]”, the binding signal (PBM E-score (-0.5 to 0.5)) in series [8] was determined as 0.491. The sequence “TGACTACA (double strand) [8-mer TGACTACA]” came in with a binding signal (PBM E-score (-0.5 to 0.5)) in series [7] of 0.491. The same measure, in the same setting: next, “TGGCTACA (double strand) [8-mer TGGCTACA]”: 0.48. In the case of “TGTCACAA (double strand) [8-mer TGTCACAA]”, the values for the binding signal (PBM E-score (-0.5 to 0.5)) in series [3] and in series [4] were 0.49 and 0.474, respectively. In the case of “TGTCAGAA (double strand) [8-mer TGTCAGAA]”, the binding signal (PBM E-score (-0.5 to 0.5)) in series [8] is 0.496.
